According to publication PMC4288329, “Characterization of the inositol monophosphatase gene family in Arabidopsis” (Frontiers in Plant Science, 2015):

Columns and labels:
Experiment in all cases: malachite green phosphate release assay, Michaelis-Menten fit
Format in all cases: biochemical, Arabidopsis thaliana
[1] = substrate: N[C@H](COP(=O)(O)O)Cc1c[nH]cn1; details: 50 mM Tris-Cl pH 7.5, 2 mM MgCl2, 22°C in table note (25°C in methods), substrate 0-1 mM
Excerpt: malachite green phosphate release assay, Michaelis-Menten fit on IMPL2 (AtIMPL2)

[2] = substrate: O=P(O)(O)O[C@H]1O[C@H](CO)[C@H](O)[C@H](O)[C@H]1O; details: 50 mM Tris pH 9, 3 mM MgCl2, 22°C in table note (25°C in methods), substrate 0-1 mM, value approximated
Excerpt: (§1) malachite green phosphate release assay, Michaelis-Menten fit on IMPL1 (AtIMPL1)

[3] = substrate: O=P(O)(O)O[C@@H]1[C@H](O)[C@H](O)[C@@H](O)[C@H](O)[C@H]1O; details: 50 mM Tris pH 9, 3 mM MgCl2, 22°C in table note (25°C in methods), substrate 0-1 mM, substrate inhibition above 1 mM
Excerpt: as §1

| Protein | Km [1] | kcat [1] | kcat/Km [1] | Km [2] | kcat [2] | kcat/Km [2] | Km [3] | kcat [3] | kcat/Km [3] |
| --- | --- | --- | --- | --- | --- | --- | --- | --- | --- |
| IMPL2 (AtIMPL2) (Arabidopsis thaliana) (protein, plasmid pAtIMPL2H) LSDTELDRFAAVGNALADASGEVIRKYFRKKFDIVDKDDMSPVTIADQMAEEAMVSIIFQNLPSHAIYGEEKGWRCKEESADYVWVLDPIDGTKSFITGKPVFGTLIALLYKGKPILGLIDQPILKERWIGMNGRRTKLNGEDISTRSCPKLSQAYLYTTSPHLFSEEAEKAYSRVRDKVKVPLYGCDCYAYALLASGFVDLVIESGLKPYDFLALVPVIEGAGGTITDWTGKRFLWEASSSAVATSFNVVAAGDSDIHQQALESLEWH | 180 ± 5 µM | 1.3 ± 0.2 s⁻¹ | 7900 ± 200 M⁻¹ s⁻¹ | – | – | – | – | – | – |
| IMPL1 (AtIMPL1) (Arabidopsis thaliana) (protein, plasmid pAtIMPL1H) TTGTISPAHLLEVVELAAKTGAEVVMEAVNKPRNITYKGLSDLVTDTDKASEAAILEVVKKNFSDHLILGEEGGIIGDSSSDYLWCIDPLDGTTNFAHGYPSFAVSVGVLYRGNPAAASVVEFVGGPMCWNTRTFSATAGGGALCNGQKIHVSKTDAVERALLITGFGYEHDDAWSTNMELFKEFTDVSRGVRRLGAAAVDMCHVALGIAESYWEYRLKPWDMAAGVLIVEEAGGAVTRMDGGKFSVFDRSVLVSNGVLHPKLLERIAPATENLKSKGIDFSLWFKPEDYHTEL | – | – | – | 450 ± 60 µM | 2.4 ± 1.3 s⁻¹ | 5300 ± 500 M⁻¹ s⁻¹ | 180 ± 3 µM | 0.6 ± 0.1 s⁻¹ | 3300 ± 100 M⁻¹ s⁻¹ |
